Test results from patent US20250109203A1.
Numbering of substitutions follows the chain as printed.

B1: bivalent 1D7 VHH-human IgG1 Fc xELL fusion (VHH)
VHH: QVQLVQSGGGLVQPGGSLRLSCVASRGKISQYRMGWYRQAPGKQRELVAHISNTGDAAEYVDSVKGRFTISRDSTKNAVYLQMNSLKPEDTAVYKCNSVEDILAWGQGTQVTVKP
B2: hu1D7v158 VHH-hIgG1 Fc-NNT (monomeric) (VHH)
VHH: EVQLLESGGGEVQPGGSLRLSCVASRGKISQYRMGWYRQAPGKQRELVAHISNTGDAAEYVAPVKGRFTISRDNAKNALYLQMNSLRAEDTAVYKCNTVEDILAWGQGTLVTVEP
B3: 1D7×HSA×IL-2_X (anti-γδTCR-1D7 VHH - anti-HSA VHH - IL-2_X) (protein, part only; not given: anti-albumin VHH and linkers, part only)
chain, part: QVQLVQSGGGLVQPGGSLRLSCVASRGKISQYRMGWYRQAPGKQRELVAHISNTGDAAEYVDSVKGRFTISRDSTKNAVYLQMNSLKPEDTAVYKCNSVEDILAWGQGTQVTVKPAPASSSTKKTQLQLEALLLDLQMILNGINNYKNPKLTRMLTFKFYMPKKATELKHLQCLERELKRLEEVLNLAQSKNFHLRPRYLISNINVIVLELKGSETTFMCEYADETATIVEFLNRWITFSQSIISTLT
B4: 1D7v158×HSA×IL-2_X (h1D7v158 VHH - anti-HSA VHH - IL-2_X) (protein, part only; not given: anti-albumin VHH and linkers, part only)
chain, part: EVQLLESGGGEVQPGGSLRLSCVASRGKISQYRMGWYRQAPGKQRELVAHISNTGDAAEYVAPVKGRFTISRDNAKNALYLQMNSLRAEDTAVYKCNTVEDILAWGQGTLVTVEPAPASSSTKKTQLQLEALLLDLQMILNGINNYKNPKLTRMLTFKFYMPKKATELKHLQCLERELKRLEEVLNLAQSKNFHLRPRYLISNINVIVLELKGSETTFMCEYADETATIVEFLNRWITFSQSIISTLT
B5: hu1D7v86 VHH-hIgG1 Fc-NNT (monomeric) (VHH)
VHH: B2 VHH with Q44E, A62G, P63G, G66D, N74S, A75T, N84S, T98S, E114R
B6: hu1D7v99 VHH-hIgG1 Fc-NNT (monomeric) (VHH)
VHH: B2 VHH with Q44E, A62S, P63S, G66D, N74S, A75T, N84S, T98S, E114R
B7: hu1D7v85 VHH-hIgG1 Fc-NNT (monomeric) (VHH)
VHH: B2 VHH with Q44E, A62S, P63G, G66D, N74S, A75T, N84S, T98S, E114R
B8: hu1D7v3 VHH-hIgG1 Fc-NNT (monomeric) (VHH)
VHH: EVQLLESGGGEVQPGGSLRLSCVASGGKISQYRMGWYRQAPGKGLEWVAHISNTGDAAEYVDSVKGRFTISRDSTKNAVYLQMSSLRAEDTAVYKCNSVEDILAWGQGTLVTVKP
B9: hu1D7v5 VHH-hIgG1 Fc-NNT (monomeric) (VHH)
VHH: B8 VHH with G26R, K28T
B10: 1D7v112 VHH-hIgG1 Fc-NNT (monomeric) (VHH)
VHH: B8 VHH with G26R, G44E, L45R, W47L, S63V, G66D, V79L, K114R
B11: hu1D7v158-6 VHH-hIgG1 Fc-NNT (monomeric) (VHH)
VHH: B2 VHH with P63S
B12: hu1D7v101 VHH-hIgG1 Fc-NNT (monomeric) (VHH)
VHH: B8 VHH with G26R, G44E, L45R, W47L, G66D, V79L, N97A, S98A, K114R
B13: hu1D7v158-8 VHH-hIgG1 Fc-NNT (monomeric) (VHH)
VHH: B2 VHH with V61A, A62E, P63S
B14: 1D7v125 VHH-hIgG1 Fc-NNT (monomeric) (VHH)
VHH: B8 VHH with G26R, G44E, L45R, W47L, D62E, S63G, G66D, V79L, K114R
B15: 1D7v124 VHH-hIgG1 Fc-NNT (monomeric) (VHH)
VHH: B8 VHH with G26R, G44E, L45R, W47L, S63G, G66D, V79L, K114R
B16: 1D7v113 VHH-hIgG1 Fc-NNT (monomeric) (VHH)
VHH: B8 VHH with G26R, G44E, L45R, W47L, S63L, G66D, V79L, K114R
B17: hu1D7v158-5 VHH-hIgG1 Fc-NNT (monomeric) (VHH)
VHH: B2 VHH with A62E
B18: hu1D7v102 VHH-hIgG1 Fc-NNT (monomeric) (VHH)
VHH: B8 VHH with G26R, G44E, G66D, V79L, S98T, K114R
B19: hu1D7v158-2 VHH-hIgG1 Fc-NNT (monomeric) (VHH)
VHH: B2 VHH with A49S
B20: hu1D7v98 VHH-hIgG1 Fc-NNT (monomeric) (VHH)
VHH: B8 VHH with G26R, G44E, L45R, W47L, D62L, G66D, V79L, K114R
B21: hu1D7v100 VHH-hIgG1 Fc-NNT (monomeric) (VHH)
VHH: B8 VHH with G26R, G44E, L45R, W47L, G66D, V79L, K95Y, K114R
B22: hu1D7v158-10 VHH-hIgG1 Fc-NNT (monomeric) (VHH)
VHH: B2 VHH with K95Y
B23: 1D7v139 VHH-hIgG1 Fc-NNT (monomeric) (VHH)
VHH: B8 VHH with G26R, G44E, L45R, W47L, D62L, G66D, V79L, K114R
B24: hu1D7v158-4 VHH-hIgG1 Fc-NNT (monomeric) (VHH)
VHH: B2 VHH with V61A
B25: hu1D7v158-3 VHH-hIgG1 Fc-NNT (monomeric) (VHH)
VHH: B2 VHH with H50A
B26: hu1D7v158-9 VHH-hIgG1 Fc-NNT (monomeric) (VHH)
VHH: B2 VHH with Q44E, L47F
B27: hu1D7v158-7 VHH-hIgG1 Fc-NNT (monomeric) (VHH)
VHH: B2 VHH with A78T
B28: hu1D7v158-1 VHH-hIgG1 Fc-NNT (monomeric) (VHH)
VHH: B2 VHH with Y37V
B29: hu1D7v10 VHH-hIgG1 Fc-NNT (monomeric) (VHH)
VHH: B8 VHH with G26R, A49S

Target: cynomolgus monkey γδ TCR on cynomolgus Vγ9+ γδ T cells (cynomolgus monkey)
Experiment: flow cytometry on expanded cynomolgus γδ T cells gated Vγ9+, anti-human Fcγ A647, MdFI

EC50 (read off the curve) [nM] | Binder
0.3 | B1

Target: human γδ TCR (Vγ9Vδ2) on human Vδ2+ γδ T cells (human) (UniProt A0JD36)
Experiment: flow cytometry on expanded human Vδ2+ γδ T cells, nonlinear fit; from data in FIG. 6J

Kd [nM] | Binder
6.54 | B2

Target: human γδ TCR (Vγ9Vδ2) on human Vδ2+ γδ T cells (human) (UniProt A0JD36)
Experiment: flow cytometry on zoledronate-expanded human γδ T cells gated Vδ2+, anti-VHH Alexa647, MdFI

EC50 (read off the curve) [nM] | Binder
5 | B3
4 | B4

Target: human γδ TCR (Vγ9Vδ2) on human Vδ2+ γδ T cells (human) (UniProt A0JD36)
Experiment: flow cytometry, monomeric VHH-hIgG1 Fc fusion on expanded human Vδ2+ γδ T cells, anti-human Fc A647, MFI

EC50 (read off the curve) [nM] | Binder
6 | B2
60 | B5
60 | B6
70 | B7
20 | B8
30 | B9

Target: human γδ TCR (Vγ9Vδ2) on human Vδ2+ γδ T cells (human) (UniProt A0JD36)
Experiment: flow cytometry on expanded human Vδ2+ γδ T cells, nonlinear fit; from data in FIG. 6K

Kd [nM] | Binder
2.96 | B2

Target: human γδ TCR (Vγ9Vδ2) on human Vδ2+ γδ T cells (human) (UniProt A0JD36)
Experiment: flow cytometry, monomeric VHH-hIgG1 Fc fusion on expanded human Vδ2+ γδ T cells, anti-human Fc A647, MFI
Remark: another data set of the same source

EC50 (read off the curve) [nM] | Binder
3 | B2

Target: human γδ TCR (Vγ9Vδ2) on human Vδ2+ γδ T cells (human) (UniProt A0JD36)
Experiment: flow cytometry on expanded human Vδ2+ γδ T cells, nonlinear fit

Kd [nM] | Binder
226 | B10
2.82 | B11
270 | B12
2.93 | B13
59 | B14
72.2 | B15
192 | B16
2.82 | B17
18 | B18
3.28 | B19
126 | B5
114 | B20
61.9 | B21
4.97 | B22
341 | B23
3.13 | B24
28 | B25
20 | B26
3.47 | B27
116 | B6
205 | B28
168 | B7
51.1 | B8
60.9 | B29
108 | B9
